B1: JR308 (antibody, V domains shown)
VH: QVQLVESGGGVVQPGRSLRLSCAASGFTFSSYGMHWVRQAPGKGLEWVAVISYDGSNKYYADSLKGRFTISRDNSKNTLYLQMNSLRAEDTAVYYCAKEGRGTYYYGSGSCPGGYWGQGTLVTVSS
VL: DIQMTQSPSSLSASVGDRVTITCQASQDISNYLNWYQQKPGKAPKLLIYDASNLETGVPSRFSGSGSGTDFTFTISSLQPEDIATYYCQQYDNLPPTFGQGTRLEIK
B2: JR170 (antibody, V domains shown)
VH: QVQLVQSGAEVRKPGASVKVSCKASRYTFTNNYIHWVRQAPGQGLEWMGIINPSGGSTTYAQKFQGRVTMTGDTSTSTVYMELSSLRSEDTAVYYCARGGFVPAATSYFDYWGQGTLVTVS
VL: QSALTQPRSVSGSPGQSVTISCTGTSSDVGGYNYVSWYQQHPGKAPKLMIYDVSKRPSGVPDRFSGSKSGNTASLTISGLQAEDEADYYCCSYAGSYTLVFGGGTKLTVL
B3: JR211 (antibody, V domains shown)
VH: QVQLQESGPGLVKPSGTLSLTCAVSGGSISSSHWWNWVRQPPGKGLEWIGEIYHSGSTNYSPSLKSRVTISVDKSKNQFSLKLSSVTAADTAVYYCAKSMRAGPNDGFDYWGQGTLVTVSS
VL: B2 VL with R8A, V18I, K55N, P61S, D62N, C91S, A94T, G95S, Y97S, L99V
B4: JR094 (antibody, V domains shown)
VH: EVQLVQSGAEVKKPGESLKISCKGSGYSFIFYWIGWVRQMPGKGLEWMGIIYPGDSDTRYSPSFQGQVTISADKSISTAYLQWSSLKASDTAMYYCASTVTRSPYDAFDMWGQGTMVTVSS
VL: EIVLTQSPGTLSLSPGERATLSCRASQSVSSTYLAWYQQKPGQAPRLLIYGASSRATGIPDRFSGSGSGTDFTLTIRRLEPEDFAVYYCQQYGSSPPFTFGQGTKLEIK
B5: JR070 (antibody, V domains shown)
VH: QLVQSGPEVKKPGTSVKVSCKASGFTFSSSAMQWVRQARGQGLEWIGWIVVGSGNTNYAQKFQERVTISRDMSTSTAYMEVSSLTSEDAAVYYCAAPNCSRTTCSDGFDIWGQGTMVTVSS
VL: EIVLTQSPGTLSLSPGERATLSCRASQSVRSSYLAWYQQKPGQAPRLLIYGASSRATGIPDRFSGSGSGTDFTVTISRLEPEDFAVYYCQQYGNSPWTFGQGTKVEIK
B6: JR202 (antibody, V domains shown)
VH: VQLVESGGGVVQPGRSLRLSCAASGFTFTTYTLHWVRQAPGKGLEWVAVISYDGNNKYYADSVKGRFTISRDDSKNTLYVQMNSLRAEDTAVYYCARSIGYYTGVDYWGQGTLVTVSS
VL: NFMLTQPHSVSESPGKTVTISCTGSSGSIAINYVQWYQQRPGSAPITVIYEDNQRPSGVPDRFSGSIDSSSNSASLTISGLKTEDEADYYCQTYHSSTWVFGGGTKLTVL
B7: JR162 (antibody, V domains shown)
VH: EVQLLESGGGLVQQGGSLRLSCAASGFTFSGHAMSWVRQAPGEGLEWVSGISDGGGSTYYADSVRGRFTISRDNSKNTLYLQMNSLRAEDTAVYYCARRGGYCTNTICYTRYYYMDVWGKGTTVTVSS
VL: DIQMTQSPSSVSASVGDRVTITCRSSQDISSWLAWYQQKPGKAPKLLIFAASSLQSGVPSRFSGSGSGTDFTLTISSLQPEDFATYYCQQANSFPLTFGGGTKVEI
B8: JR235 (antibody, V domains shown)
VH: EVQLVESGGGLVQPGRSLRLSCAASGFTFDDYAMHWVRQAPGKGLEWVSGISWNSGRIDYADSVKGRFTISRDNAKNSLYLQMNSLRAEDTALYYCAKVSTVTTYLMGYFDLWGRGTLVTVSS
VL: EIVMTQSPATLSVSPGERATLSCRASQSVSSNLAWFQQKPGQAPRLLIYGASTRATGIPARFSGSGSGTEFILTISSLQSEDFAVYYCQLYSYWPPESSFGQGTKLEIK
B9: JR090 (antibody, V domains shown)
VH: QVQLQQWGAGLLKPSETLSRTCAVYGGSFSGHYWSWIRQPPGKGLEWIGEINHSGSTNYNPSLKSRVTISVDTSKNQFSLKLSSVTAADTAVYYCARGSRAVAGTAVYFDLWGRGTLVTVSS
VL: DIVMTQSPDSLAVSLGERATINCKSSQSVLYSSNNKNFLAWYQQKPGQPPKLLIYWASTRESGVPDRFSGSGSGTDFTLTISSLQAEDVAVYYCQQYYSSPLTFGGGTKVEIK
B10: JR311 (antibody, V domains shown)
VH: QVQLVQSGAEVKKPGASVKVSCKTSGYTFTNYFVHWVRQAPGQGLEWMGWINPNSGGTNYAQTFQAWVTMTRDTSINTAYMELSRLTSDDTAVYYCARDLSFSIVRGVMGYWGQGTLVTVSS
VL: not shown
B11: JR081 (antibody, V domains shown)
VH: QVQLVQSGAEVKKPGASVKVSCKASGYIFTAYYMHWVRQAPGQGLEWMGWINPMSGATNYAQRFQGRVTMTRVTMTRDTSITTAYMELSRLRSDDTAVYYCARVNHIVGVTSSDPVYGMDVWGQGTTVTVSS
VL: QSALTQPASVSGSPGQSITISCTGTSSDVGGYKYVSWYQQHPGKAPKLMIYEVSNRPSGVSSRFSGSKSGYTASLTISGLQAEDEADYYCSSYTNSPTLFYVFGTGTKVTVL
B12: JR172 (antibody, V domains shown)
VH: EVQLVESGGGLVQPGRSLRLSCAASGFTFDDYAMHWVRQTPGKGLEWVSSISWNSGSIGYADSVKGRFTISRDNAKNSLYLQMNSLRAEDTALYYCAKDKRIDYSNYGGGFDHWGQGTLVTVSS
VL: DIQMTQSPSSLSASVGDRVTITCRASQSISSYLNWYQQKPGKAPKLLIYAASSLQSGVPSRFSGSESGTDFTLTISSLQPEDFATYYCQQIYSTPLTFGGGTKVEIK
B13: JR179 (antibody, V domains shown)
VH: QVQLVQSGAEVKKPGASVKVSCKASGYTFSSFAISWVRQAPGQGLEWMGWISAYNGNTNYAQNLQGRVTMTTDTSTSTVYMELRSLRSDDTAVYYCAREAGLTGNLDYWGQGTLVTVSS
VL: SYELTQPPSVSVAPGQTARITCGGNNIGSKNVHWYQQKPGQAPVVVVYDDSDRPSGIPERFSGSNSGNTATLTISRVEAGDEADYYCQVWDSRSYHHVVFGGGTKLTVL
B14: JR318 (antibody, V domains shown)
VH: QVQLVQSGAEVKSPGASVKVSCKASGYTFTSYDINWVRQATGQGLEWMGWMNPNSGNTDYAQKFQGRVTMTRDTSISTAYMELSSLRSEDTAIYYCARRSGYYNFGVGTRTNYYYYGMDVWGQGTTVTVSS
VL: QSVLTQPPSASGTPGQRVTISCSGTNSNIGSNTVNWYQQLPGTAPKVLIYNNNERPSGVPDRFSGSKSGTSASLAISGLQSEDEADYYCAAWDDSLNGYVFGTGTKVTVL
B15: JR097 (antibody, V domains shown)
VH: QVQLVQSGAEVKKPGASVKVSCKTSAYTFTTYFMHWVRQAPGQGLEWMGIINPSGGSTRYAQKFQGRVTMTRDTSTSTVYMELSGLRSEDTAVYYCARERRPGFYDSSGYSFDYWGQGTLVTVSS
VL: SYELTQPPSVSVAPGKTARITCGGNNIGSKSVHWYQQKPGQAPVLVVYDDSDRPSGIPERFSGSNSGNTATLTISRVEAGDEADYYCQVWDSSSDPVVFGGGTKLTVL
B16: JR062 (antibody, V domains shown)
VH: EVQLVESGGGLIQPGGSLRLSCAASGFSVSNNYMNWVRQAPGKGLEWLSVIYNAGTTYYAGSVKGRFTISKDNSKNTLYLQLNSLRPEDTAVYYCARGHTGVAALMTGAFDIWGQGTMVTVSS
VL: QSALTQPPSASGSPGQSVTISCTGTSSDVGGYDYVSWYQQYPGKAPKLMIYEVSKRPSGVPDRFSGSKSGNTASLTVSGLQAEDEADYYCSSYAGNNNWVFGGGTKLTVL
B17: JR171 (antibody, V domains shown)
VH: QVQLVQSGAEVKKPGASVKVSCKASGYTFTSYYMHWVRQAPGQGLEWMGIINPSGGSTSYAQKFQGRVTMTRDTSTSTVYMELSSLRSEDTAVYYCARAYDSAPGFDYWGQGTLVTVSS
VL: DIQLTQSPSFLSASVGDRVTITCRASQGISSYLAWYQQKPGKAPKLLIYAASTLQSGVPSRFSGSGSGTEFTLTISSLQPEDFATYYCQQLNSYPSITFGQGTRLEIK
B18: JR049 (antibody, V domains shown)
VH: EVQLVESGGGLVQPGGSLRLSCAASGFTFSSYDMHWVRQVTGKGLEWVSGIGTAGDTYYRDSVKGRFTISRENAKKSLYLQMNSLRAGDTAVYYCARDNGALYYYGSGAMDVWGKGTTVTVSS
VL: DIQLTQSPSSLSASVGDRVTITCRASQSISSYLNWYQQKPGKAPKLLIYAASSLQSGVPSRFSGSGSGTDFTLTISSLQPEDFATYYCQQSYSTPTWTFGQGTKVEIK
B19: JR307 (antibody, V domains shown)
VH: EVQLVESGGGLVQPGGSLRLSCEVSGFTFSNYWMHWVRQAPGKGLVWVSRVDSDGNSTTYADSVNGRFTISRDNAKNTLYLQMKSLRAEDTAIYYCTRDCENCRHWYFDLWGRGTLVTVS
VL: SYELTQPPSVSVTPGQTARIACGGNNIGTKGVHWYQQRPGQAPVLVVYDDENRPSGIPERFSGSNSGDTATLIITWVEAGDEADYYCQVWHGLSDHPVFGGGTRLTVL
B20: JR095 (antibody, V domains shown)
VH: VQLVESGGGVVQPGRSLRLSCAASGFTFSRYAMHWVRQAPGKGLQWVAIISYDGSNKYYADSVKGRFTISRDNSKNTLYLQMNSLRAEDTAVYYCARHITGTDYWGQGTLVTVSS
VL: DIQMTQSPSSLSASVGDRVTITCRASQGISIYLAWFQQKPGKAPKSLIYAASNLQSGVPSKFSGSGSGTDFTLTISSLQPEDFATYYCQQYDSYPITFGQGTRLEIK

Substitutions are numbered along the chain they refer to.

This note sets out measurements from article PMC9253517 (The Journal of Experimental Medicine, 2022).

The target of the first assay is T1, SARS-CoV-2 Wuhan-Hu-1 RBD (SARS-CoV-2, Wuhan-Hu-1 (GenBank …, UniProt P0DTC2)). As to the kind of experiment: BLI. The settings on record: both partners purified.
For B1, the binding result is on record as “binds”.
In the case of B2, the binding result is “binds”.
Take B3: the binding result was “binds”.
As to B4, the binding result is given as “binds”.
Same read-out and setting: next, B5: “binds”; B6: “binds”; B7: “binds”.
Turning to B8, the binding result is reported as “binds”.
Consider B9, for which the binding result is given as “binds”.
Still for that read-out and setting: next, B10: “binds”.
For B11, the binding result is recorded as “binds”.
Take B12: the binding result is “binds”.
Still for that read-out and setting: for B13 the value was “binds”.
On the same count and under the same terms, next, B14: “binds”.
The same measure, in the same setting: next, B15: “binds”.
For B16, the binding result is “binds”.
In the case of B17, the binding result was “binds”.
Consider B18, for which the binding result was “binds”.
For the molecule B19, the binding result is “binds”.
On the same count and under the same terms, next, B20: “binds”.

The next assay concerns the target T1, SARS-CoV-2 Wuhan-Hu-1 RBD. As to the kind of experiment: cell-based or functional assay.
Conditions: not given
For the molecule B1, the “neutralisation IC50, Wuhan-Hu-1 pseudovirus” value (“neutralisation IC50” for short) is above 1 µg/mL.
The same measure, in the same setting: for B2 the value was above 1 µg/mL; for B3, above 1 µg/mL; for B4, above 1 µg/mL.
On the same count and under the same terms, next, B5: 0.00193 µg/mL; B6: 0.00354 µg/mL; B7: 0.00455 µg/mL.
Still for that read-out and setting: for B8 the value was above 1 µg/mL; for B9, above 1 µg/mL; for B10, above 1 µg/mL.
Consider B11, for which the “neutralisation IC50” value was 0.00347 µg/mL.
Consider B12, for which the “neutralisation IC50” value is above 1 µg/mL.
Take B13: the “neutralisation IC50” value was above 1 µg/mL.
As for B14, the “neutralisation IC50” value was 0.00652 µg/mL.
In the case of B15, the “neutralisation IC50” value is above 1 µg/mL.
B16: the “neutralisation IC50” value is 0.0029 µg/mL.
For B17, the “neutralisation IC50” value was above 1 µg/mL.
Still for that read-out and setting: for B18 the value was above 1 µg/mL; for B19, above 1 µg/mL.
B20: the “neutralisation IC50” value is above 1 µg/mL.
